# How the values were obtained:
# Experiment in all cases: BLI (Gator), antibody on protein A probe, F mutant supernatant held 1 h at 60° C.
# [1] = biological target: RSV F protein mutant YK001Ag410 (AHV80758, RSV B) (RSV B)
# [2] = biological target: RSV F protein mutant YK001Ag404 (RSV A) (RSV A) (UniProt P11209)
# [3] = biological target: RSV F protein mutant YK001Ag411 (AVQ93588.1, RSV B) (RSV B)
# [4] = biological target: DS-CavI (positive control) RSV F protein
# [5] = biological target: RSV F protein mutant YK001Ag400 (RSV A) (UniProt P12568)
# [6] = biological target: RSV F protein mutant YK001Ag402 (RSV A) (UniProt P12568)
# [7] = biological target: RSV F protein mutant YK001Ag399 (RSV A) (RSV A) (UniProt P11209)
# [8] = biological target: RSV F protein mutant YK001Ag407 (RSV A) (RSV A) (UniProt P11209)
# [9] = biological target: RSV F protein mutant YK001Ag406 (RSV A) (RSV A) (UniProt P11209)
# [10] = biological target: RSV F protein mutant YK001Ag222 (RSV A) (UniProt P12568)
# [11] = biological target: RSV F protein mutant YK001Ag401 (RSV A) (RSV A) (UniProt P11209)
# [12] = biological target: RSV F protein mutant YK001Ag403 (RSV A) (UniProt P12568)
# [13] = biological target: SC-TM (positive control) RSV F protein
substance,measurement,setting,value
monoclonal antibody AM14,Activity of antibody AM14 after 1 h at 60° C. (%),[1],67.7%
same,Activity of antibody AM14 after 1 h at 60° C. (%),[2],60.9%
same,Activity of antibody AM14 after 1 h at 60° C. (%),[3],69.5%
same,Activity of antibody AM14 after 1 h at 60° C. (%),[4],9.9%
same,Activity of antibody AM14 after 1 h at 60° C. (%),[5],1.4%
same,Activity of antibody AM14 after 1 h at 60° C. (%),[6],28.6%
same,Activity of antibody AM14 after 1 h at 60° C. (%),[7],99.8%
same,Activity of antibody AM14 after 1 h at 60° C. (%),[8],52.6%
same,Activity of antibody AM14 after 1 h at 60° C. (%),[9],45.5%
same,Activity of antibody AM14 after 1 h at 60° C. (%),[10],1.1%
same,Activity of antibody AM14 after 1 h at 60° C. (%),[11],2.2%
same,Activity of antibody AM14 after 1 h at 60° C. (%),[12],81%
same,Activity of antibody AM14 after 1 h at 60° C. (%),[13],1.3%
monoclonal antibody D25,Activity of antibody D25 after 1 h at 60° C. (%),[1],88.7%
same,Activity of antibody D25 after 1 h at 60° C. (%),[2],75.4%
same,Activity of antibody D25 after 1 h at 60° C. (%),[3],91.4%
same,Activity of antibody D25 after 1 h at 60° C. (%),[4],103%
same,Activity of antibody D25 after 1 h at 60° C. (%),[5],15.6%
same,Activity of antibody D25 after 1 h at 60° C. (%),[6],84%
same,Activity of antibody D25 after 1 h at 60° C. (%),[7],80.8%
same,Activity of antibody D25 after 1 h at 60° C. (%),[8],77.2%
same,Activity of antibody D25 after 1 h at 60° C. (%),[9],60.4%
same,Activity of antibody D25 after 1 h at 60° C. (%),[10],5.8%
same,Activity of antibody D25 after 1 h at 60° C. (%),[11],20.8%
same,Activity of antibody D25 after 1 h at 60° C. (%),[12],89.7%
same,Activity of antibody D25 after 1 h at 60° C. (%),[13],21%
